Results as given in the supplement of paper PMC11780869.

Tested on: Bacillus subtilis
Assay: cleaved RNA product abundance (RNA/gDNA barcode ratio) relative to median wild-type variant (ratio to wild type); higher = more accumulation of the downstream cleavage product
Conditions: experiment (reporter, strain, medium): exp 8a: truncated aprE reporter, strain BJT201 with 2% xylose (RNase J1 expressed); cleavage site: glnRA (positions -5 to +31 mutated)
In short: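 The B. subtilis chromosome carried reporter mRNAs, truncated aprE or tetM, containing barcoded RNase Y cleavage-site windows mutagenized using oligos with a 9% error rate. After growth in LB at 37°C from OD600 0.0003 to 0.3, cleaved RNA was gel-selected, reverse transcribed and barcode-sequenced next to genomic DNA barcodes, with UMI collapsing. Each construct's RNA:gDNA barcode ratio was scaled to the median construct with the unmutated site. That scaled ratio is reported as cleaved product abundance.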

| Sequence | cleaved RNA product abundance |
| --- | --- |
| CGACATGTCCCGCTTCTTTCATTATTCCGTTAGCAACTGTTTTGCTATATACAATTACCTTTTAAGAGGAGGAAT | 1.31 |
| CGACATGTCCCGCTTCTTTCATTATTCCGTTAGCAACTGTTTTGCTATATACACTTACCTTTTAAGAGGAGGAAT | 1.07 |
| CGACATGTCCCGCTTCTTTCATTATTCCGTTAGCAACTGTTTTGCTATATACAGTTACCTTTTAAGAGGAGGAAT | 0.649 |
| CGACATGTCCCGCTTCTTTCATTATTCCGTTAGCAACTGTTTTGCTATATACATATACCTTTTAAGAGGAGGAAT | 1.59 |
| CGACATGTCCCGCTTCTTTCATTATTCCGTTAGCAACTGTTTTGCTATATACATCTACCTTTTAAGAGGAGGAAT | 1.15 |
| CGACATGTCCCGCTTCTTTCATTATTCCGTTAGCAACTGTTTTGCTATATACATTAACATTTTAAGAGGAGGAAT | 2.49 |
| CGACATGTCCCGCTTCTTTCATTATTCCGTTAGCAACTGTTTTGCTATATACATTAACCTTTTAAGAGGAGGAAT | 1.44 |
| CGACATGTCCCGCTTCTTTCATTATTCCGTTAGCAACTGTTTTGCTATATACATTCACCTTTTAAGAGGAGGAAT | 1.3 |
| CGACATGTCCCGCTTCTTTCATTATTCCGTTAGCAACTGTTTTGCTATATACATTGACCTTTTAAGAGGAGGAAT | 1.55 |
| CGACATGTCCCGCTTCTTTCATTATTCCGTTAGCAACTGTTTTGCTATATACATTTAACTTTTAAGAGGAGGAAT | 1.71 |
| CGACATGTCCCGCTTCTTTCATTATTCCGTTAGCAACTGTTTTGCTATATACATTTACATTTTAAGAGGAGGAAT | 1.98 |
| CGACATGTCCCGCTTCTTTCATTATTCCGTTAGCAACTGTTTTGCTATATACATTTACCATTTAAGAGGAGGAAT | 1.89 |
| CGACATGTCCCGCTTCTTTCATTATTCCGTTAGCAACTGTTTTGCTATATACATTTACCCTTTAAGAGGAGGAAT | 0.558 |
| CGACATGTCCCGCTTCTTTCATTATTCCGTTAGCAACTGTTTTGCTATATACATTTACCGTTTAAGAGGAGGAAT | 1.18 |
| CGACATGTCCCGCTTCTTTCATTATTCCGTTAGCAACTGTTTTGCTATATACATTTACCTTTTAAGAGGAGGAAT | 1.42 |
| CGACATGTCCCGCTTCTTTCATTATTCCGTTAGCAACTGTTTTGCTATATACATTTACGTTTTAAGAGGAGGAAT | 2.39 |
| CGACATGTCCCGCTTCTTTCATTATTCCGTTAGCAACTGTTTTGCTATATACATTTACTTTTTAAGAGGAGGAAT | 1.96 |
| CGACATGTCCCGCTTCTTTCATTATTCCGTTAGCAACTGTTTTGCTATATACATTTATCTTTTAAGAGGAGGAAT | 1.8 |
| CGACATGTCCCGCTTCTTTCATTATTCCGTTAGCAACTGTTTTGCTATATACATTTCCCTTTTAAGAGGAGGAAT | 1.01 |
| CGACATGTCCCGCTTCTTTCATTATTCCGTTAGCAACTGTTTTGCTATATACATTTGCCTTTTAAGAGGAGGAAT | 0.599 |
| CGACATGTCCCGCTTCTTTCATTATTCCGTTAGCAACTGTTTTGCTATATACATTTTCCTTTTAAGAGGAGGAAT | 0.792 |
| CGACATGTCCCGCTTCTTTCATTATTCCGTTAGCAACTGTTTTGCTATATACCTTTACCTTTTAAGAGGAGGAAT | 0.383 |

| Sequence | cleaved RNA product abundance |
| --- | --- |
| CGACATGTCCCGCTTCTTTCATTATTCCGTTAGCAACTGTTTTGCTATATACGTTTACCTTTTAAGAGGAGGAAT | 0.645 |
| CGACATGTCCCGCTTCTTTCATTATTCCGTTAGCAACTGTTTTGCTATATACTTTTACCTTTTAAGAGGAGGAAT | 0.815 |
| CGACATGTCCCGCTTCTTTCATTATTCCGTTAGCAACTGTTTTGCTATATAGATTTAACTTTTAAGAGGAGGAAT | 0.911 |
| CGACATGTCCCGCTTCTTTCATTATTCCGTTAGCAACTGTTTTGCTATATAGATTTACCTTTTAAGAGGAGGAAT | 1.02 |
| CGACATGTCCCGCTTCTTTCATTATTCCGTTAGCAACTGTTTTGCTATATATATTTACCTTTTAAGAGGAGGAAT | 1.45 |
| CGACATGTCCCGCTTCTTTCATTATTCCGTTAGCAACTGTTTTGCTATATCCATTTACCTTTTAAGAGGAGGAAT | 0.359 |
| CGACATGTCCCGCTTCTTTCATTATTCCGTTAGCAACTGTTTTGCTATATTCATTTACCTTTTAAGAGGAGGAAT | 0.669 |
| CGACATGTCCCGCTTCTTTCATTATTCCGTTAGCAACTGTTTTGCTATCTACATTTACCTTTTAAGAGGAGGAAT | 0.167 |
| CGACATGTCCCGCTTCTTTCATTATTCCGTTAGCAACTGTTTTGCTATGTACATTTACCTTTTAAGAGGAGGAAT | 0.184 |
| CGACATGTCCCGCTTCTTTCATTATTCCGTTAGCAACTGTTTTGCTATTTACATTTACCTTTTAAGAGGAGGAAT | 0.131 |
| CGACATGTCCCGCTTCTTTCATTATTCCGTTAGCAACTGTTTTGCTCTATACATTTACCTTTTAAGAGGAGGAAT | 0.354 |
| CGACATGTCCCGCTTCTTTCATTATTCCGTTAGCAACTGTTTTGCTGTATACATTTACCTTTTAAGAGGAGGAAT | 0.298 |
| CGACATGTCCCGCTTCTTTCATTATTCCGTTAGCAACTGTTTTGCTTTATACATTTACCTTTTAAGAGGAGGAAT | 0.401 |
| CGACATGTCCCGCTTCTTTCATTATTCCGTTAGCAACTGTTTTGGTATATACATTTACCTTTTAAGAGGAGGAAT | 0.304 |
| CGACATGTCCCGCTTCTTTCATTATTCCGTTAGCAACTGTTTTGTTATATACATTTACCTTTTAAGAGGAGGAAT | 0.541 |
| CGACATGTCCCGCTTCTTTCATTATTCCGTTAGCAACTGTTTTTCTATATACATTTACCTTTTAAGAGGAGGAAT | 0.62 |
| CGACATGTCCCGCTTCTTTCATTATTCCGTTAGCAACTTTTTTGCTATATACATTTACCGTTTAAGAGGAGGAAT | 2.31 |
| CGACATGTCCCGCTTCTTTCATTATTCCGTTAGCAACTTTTTTGCTATATACATTTACCTTTTAAGAGGAGGAAT | 2.24 |
| CGACATGTCCCGCTTCTTTCATTATTCCGTTAGCAACTTTTTTGCTATATACTTTTACCTTTTAAGAGGAGGAAT | 0.558 |
| CGACATGTCCCGCTTCTTTCATTATTCCGTTAGCAAGTGTTTTGCTATATACATTTACCTTTTAAGAGGAGGAAT | 1.46 |
| CGACATGTCCCGCTTCTTTCATTATTCCGTTAGCAATTGTTATGGTATATACAATTATCTTTTAAGAGGAGGAAT | 0.256 |
| CGACATGTCCCGCTTCTTTCATTATTCCGTTAGCAATTGTTTTGCTATATACATTTACCTTTTAAGAGGAGGAAT | 1.83 |

| Sequence | cleaved RNA product abundance |
| --- | --- |
| CGACATGTCCCGCTTCTTTCATTATTCCGTTAGCACCTGTTTTGCTATATACATTTACCTTTTAAGAGGAGGAAT | 1.18 |
| CGACATGTCCCGCTTCTTTCATTATTCCGTTAGCAGCTGTTTTGCTATATACATTTACCTTTTAAGAGGAGGAAT | 1.16 |
| CGACATGTCCCGCTTCTTTCATTATTCCGTTAGCATCTGTTTTGCTATATACATTTACCTTTTAAGAGGAGGAAT | 1.34 |
| CGACATGTCCCGCTTCTTTCATTATTCCGTTAGCCACTGTTTTGCTATATACATTTACCTTTTAAGAGGAGGAAT | 0.595 |
| CGACATGTCCCGCTTCTTTCATTATTCCGTTAGCGACTGTTTTGCTATATACATTTACCTTTTAAGAGGAGGAAT | 0.759 |
| CGACATGTCCCGCTTCTTTCATTATTCCGTTAGCTACTGTTTTGCTATATACATTTACCTTTTAAGAGGAGGAAT | 0.764 |
| CGACATGTCCCGCTTCTTTCATTATTCCGTTAGGAACTGTTTTGCTATATACATTTACCTTTTAAGAGGAGGAAT | 0.44 |
| CGACATGTCCCGCTTCTTTCATTATTCCGTTAGTAACTGTTTTGCTATATACATTTACCTTTTAAGAGGAGGAAT | 0.651 |
| CGACATGTCCCGCTTCTTTCATTATTCCGTTATCAACTGTTTTGATATATACATTTACCTTTTAAGAGGAGGAAT | 0.385 |
| CGACATGTCCCGCTTCTTTCATTATTCCGTTATCAACTGTTTTGCTATACACATTTACCTTTTAAGAGGAGGAAT | 0.188 |
| CGACATGTCCCGCTTCTTTCATTATTCCGTTATCAACTGTTTTGCTATATACATTTACCTTTTAAGAGGAGGAAT | 0.265 |
| CGACATGTCCCGCTTCTTTCATTATTCCGTTCGCAACTGTTTTGCTATATACATTTACCTTTTAAGAGGAGGAAT | 0.283 |
| CGACATGTCCCGCTTCTTTCATTATTCCGTTGGCAACTGTTTTGCTATATACATTTACCTTTTAAGAGGAGGAAT | 0.851 |
| CGACATGTCCCGCTTCTTTCATTATTCCGTTTGCAACTGTTTTGCTATATACATTTACCATTTAAGAGGAGGAAT | 0.356 |
| CGACATGTCCCGCTTCTTTCATTATTCCGTTTGCAACTGTTTTGCTATATACATTTACCTTTTAAGAGGAGGAAT | 0.543 |
| CGACATGTCCCGCTTCTTTCATTATTCCGTTTTCAACTGTTTTGCTATATACATTTACCTTTTAAGAGGAGGAAT | 0.361 |
| CGACATGTCCCGCTTCTTTCATTATTCCTTAAACAACTGTTTTGTAATATACATTATACCTTTAAGAGGAGGAAT | 0.242 |
| CGACATGTCCCGCTTCTTTCATTATTCCTTTACCAACAGTTTTGCTATATACATTTACCTTTTAAGAGGAGGAAT | 0.112 |
| CGACATGTCCCGCTTCTTTCATTATTCCTTTACCAACTTTTTTGCTATATATATATACCTTTTAAGAGGAGGAAT | 0.182 |
| CGACATGTCCCGCTTCTTTCATTATTCCTTTAGCAACTGTTTTGATATATACATTTACCTTTTAAGAGGAGGAAT | 0.465 |
| CGACATGTCCCGCTTCTTTCATTATTCCTTTAGCAACTGTTTTGCTATATACATTTACCTTTTAAGAGGAGGAAT | 1.04 |
| CGACATGTCCCGCTTCTTTCATTATTCGGTTAGCAACTGTTTTGCTATATACATTTACCTTTTAAGAGGAGGAAT | 1.73 |
